Measurements from US20260176653A1 (TRUSTEES OF BOSTON UNIVERSITY, published 2026).
Positions count from the first letter of the chain named. Names and notes keep the numbering of the source. Ends that are not written are not given here.

T1: HCV protease NS3 from genotype 1B (NS4A/NS3, fused to the C-terminus of ADAR2-DD) (Hepatitis C virus genotype 1B, UniProt Q9WMX2 1029-1206)
T1 chain: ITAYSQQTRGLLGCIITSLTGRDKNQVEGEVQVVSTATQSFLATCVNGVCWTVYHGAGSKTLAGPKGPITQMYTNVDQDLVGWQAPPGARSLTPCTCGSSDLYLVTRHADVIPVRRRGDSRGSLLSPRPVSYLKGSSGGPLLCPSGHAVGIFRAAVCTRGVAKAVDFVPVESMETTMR

B1: Bad(F) peptide (BH3 peptide Bad with its linker, as inserted at the 5' RNA binding loop of ADAR2-DD) (peptide)
peptide: ASGSGTGAPPNLWAAQRYGRELRRMSDEFV
modifications: not fully specified (N-terminus, C-terminus); also: part of an expressed fusion protein
B2: Bad(L) peptide (Bad point mutant F121L, inserted at the 5' RNA binding loop of ADAR2-DD) (peptide)
peptide: B1 peptide with F29L
modifications: not fully specified (N-terminus, C-terminus); also: part of an expressed fusion protein
B3: ALFA-Bcl dual input iADAR (BAD peptide at the N-terminus of ADAR2-DD(F697Y), ALFA-PE at the 5' RNA binding site, AlfaNb and Bcl-xL in tandem at the C-terminus) (other)
chain: MASNFTQFVLVDNGGTGDVTVAPSNFANGIAEWISSNSRSQAYKVTCSVRQSSAQNRKYTIKVEVPKGAWRSYLNMELTIPIFATNSDCELIVKAMQGLLKDGNPIPSAIAANSGIYGGSGSGAGSGSPAGGGAPGSGGGSTGAPPNLWAAQRYGRELRRMSDEFVDSFKKASQLHLPQVLADAVSRLVLGKFGDLTDNFSSPHARRKVLAGVVMTTGTDVKDAKVISVSTGTKCINGEYMSDRGLALNDCHAEIISRRSLLRFLYTQLELYLNNKDDQKRSIFQKSERGGFRLKENVQFHLYISTSPCGDARIFSPHEPILEEPAASGSGPGRLEEELRRRLSPGTGDRHPNRKARGQLRTKIESGQGTIPVRSNASIQTWDGVLQGERLLTMSCSDKIARWNVVGIQGSLLSIFVEPIYFSSIILGSLYHGDHLSRAMYQRISNIEDLPPLYTLNKPLLSGISNAEARQPGKAPNFSVNWTVGDSAIEVINATTGKDELGRASRLCKHALYCRWMRVHGKVPSHLLRSKITKPNVYHESKLAAKEYQAAKARLFTAFIKAGLGAWVEKPTEQDQYSLTGSGGTAEVQLQESGGGLVQPGGSLRLSCTASGVTISALNAMAMGWYRQAPGERRVMVAAVSERGNAMYRESVQGRFTVTRDFTNKMVSLQMDNLKPEDTAVYYCHVLEDRVDSFHDYWGQGTQVTVSSGAGSGASSNRELVVDFLSYKLSQKGYSWSQFSDVEENRTEAPEGTESEMETPSAINGNPSWHLADSPAVNGATGHSSSLDAREVIPMAAVKQALREAGDEFELRYRRAFSDLTSQLHITPGTAYQSFEQVVNELFRDGVNWGRIVAFFSFGGALCVESVDKEMQVLVSRIAAWMATYLNDHLEPWIQENGGWDTFVELYGNNGSSELIKENMHMKLYMEGTVDNHHFKCTSEGEGKPYEGTQTMRIKVVEGGPLPFAFDILATSFLYGSKTFINHTQGIPDFFKQSFPEGFTWERVTTYEDGGVLTATQDTSLQDGCLIYNVKIRGVNFTSNGPVMQKKTLGWEAFTETLYPADGGLEGRNDMALKLVGGSHLIANIKTTYRSKKPAKNLKMPGVYYVDYRLERIKEANNETYVEQHEVAVARYCDLPSKLGHKLN

How the values were obtained:
Assay in all cases: cell-based or functional assay
[1] = molecular target: T1, HCV protease NS3 from genotype 1B …
[2] = molecular target: Bcl-xL (human, fused to the C-terminus of ADAR2-DD) (human, UniProt Q07817 4-198)
[3] = molecular target: EGFP(R96M)-AlfaTag fusion protein (non-fluorescent EGFP carrying the ALFA tag)

| Binder | ratio of mNeonGreen to mCherry, 2 µM grazoprevir against no drug, HEK cells, imaging (fusion SEQ ID NO 169) [1] [fold] | Fold Change (1 µM over 0 µM A-1331852) [2] [fold] | median ratio of mNeonGreen to mCherry, flow cytometry, 0 µM A-1331852 (background) [2] | median ratio of mNeonGreen to mCherry, flow cytometry, 1 µM A-1331852 [2] | median relative fluorescence, flow cytometry: A-1331852 plus EGFP(R96M)-AlfaTag against A-1331852 alone (the effect of adding the antigen) [3] [fold] |
| --- | --- | --- | --- | --- | --- |
| GELDELVYLLDGPGYDPIHCDVVTRGGSHLFNF [CP5-46-4D5E peptide (NS3 binding peptide, inserted at the 5' RNA binding loop of ADAR2-DD)] | ~18 | – | – | – | – |
| B1 | – | 37 | 0.026 | 0.962 | – |
| B2 | – | 23.2 | 0.0389 | 0.903 | – |
| ASGSGTGAPPNLWAAQRYGRELRRMSDEVV (not fully specified) [BAD(V) peptide (Bad point mutant F121V, inserted at the 5' RNA binding loop of ADAR2-DD)] | – | 14.4 | 0.0708 | 1.02 | – |
| ASGSGTGAPPNLWAAQRYGRELRRMSDEGV (not fully specified) | – | 9.65 | 0.1 | 0.968 | – |
| B3 | – | – | – | – | ~10 |
